T1: Bud14, P27637
T1 sequence (P27637 247-328, looked up): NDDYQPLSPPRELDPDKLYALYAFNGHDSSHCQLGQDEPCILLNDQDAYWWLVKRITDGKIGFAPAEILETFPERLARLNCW

T2: Lsb4, P32793
T2 sequence (P32793 402-468, looked up): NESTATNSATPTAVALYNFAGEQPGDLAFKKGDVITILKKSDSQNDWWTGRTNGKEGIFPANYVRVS

T3: Sla1-2, P32790
T3 sequence (P32790 60-140, looked up): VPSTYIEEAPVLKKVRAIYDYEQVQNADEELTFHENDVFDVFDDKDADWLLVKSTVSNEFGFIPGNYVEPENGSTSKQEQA

T4: Boi2, P39969
T4 sequence (P39969 32-116, looked up): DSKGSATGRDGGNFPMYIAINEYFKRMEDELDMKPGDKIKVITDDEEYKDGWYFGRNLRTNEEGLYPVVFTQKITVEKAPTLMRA

T5: Bbc1, P47068
T5 sequence (P47068 1-78, looked up): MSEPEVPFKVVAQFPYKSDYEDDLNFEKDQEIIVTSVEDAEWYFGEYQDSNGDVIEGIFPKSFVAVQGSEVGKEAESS

T6: Sla1-3, P32790
T6 sequence (P32790 344-424, looked up): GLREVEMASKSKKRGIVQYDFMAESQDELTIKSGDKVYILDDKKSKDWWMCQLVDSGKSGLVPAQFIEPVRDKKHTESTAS

T7: Bzz1-2, P38822
T7 sequence (P38822 568-633, looked up): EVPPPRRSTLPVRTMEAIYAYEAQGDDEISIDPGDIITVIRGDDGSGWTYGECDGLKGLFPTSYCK

T8: Cdc25, P04821
T8 sequence (P04821 50-136, looked up): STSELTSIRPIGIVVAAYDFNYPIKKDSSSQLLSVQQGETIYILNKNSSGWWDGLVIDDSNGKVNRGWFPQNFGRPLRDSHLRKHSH

T9: Nbp2, Q12163
T9 sequence (Q12163 103-180, looked up): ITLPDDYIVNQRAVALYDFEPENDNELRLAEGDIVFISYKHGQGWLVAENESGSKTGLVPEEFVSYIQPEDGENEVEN

T10: Myo5, Q04439
T10 sequence (Q04439 1072-1160, looked up): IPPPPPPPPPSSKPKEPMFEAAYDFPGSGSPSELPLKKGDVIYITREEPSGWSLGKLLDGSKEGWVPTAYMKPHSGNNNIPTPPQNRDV

T11: Fus1, P11710
T11 sequence (P11710 432-512, looked up): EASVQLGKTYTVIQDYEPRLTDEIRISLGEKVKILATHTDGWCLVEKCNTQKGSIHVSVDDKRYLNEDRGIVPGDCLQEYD

T12: Abp1, P15891
T12 sequence (P15891 535-592, looked up): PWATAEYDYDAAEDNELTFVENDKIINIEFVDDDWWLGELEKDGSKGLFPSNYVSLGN

T13: Lsb3, P43603
T13 sequence (P43603 385-451, looked up): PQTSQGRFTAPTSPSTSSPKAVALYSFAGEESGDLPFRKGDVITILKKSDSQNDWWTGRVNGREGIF

T14: Boi1, P38041
T14 sequence (P38041 1-86, looked up): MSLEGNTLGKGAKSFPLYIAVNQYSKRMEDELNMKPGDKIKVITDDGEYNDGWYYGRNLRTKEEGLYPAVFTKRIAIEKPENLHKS

T15: Pex13, P80667
T15 sequence (P80667 295-386, looked up): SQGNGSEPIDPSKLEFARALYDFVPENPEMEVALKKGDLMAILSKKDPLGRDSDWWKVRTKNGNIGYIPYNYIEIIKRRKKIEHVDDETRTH

T16: Bzz1-1, P38822
T16 sequence (P38822 478-572, looked up): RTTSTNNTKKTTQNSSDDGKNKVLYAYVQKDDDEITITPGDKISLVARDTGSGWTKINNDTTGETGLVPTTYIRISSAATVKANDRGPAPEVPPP

T17: Hse1, P38753
T17 sequence (P38753 208-285, looked up): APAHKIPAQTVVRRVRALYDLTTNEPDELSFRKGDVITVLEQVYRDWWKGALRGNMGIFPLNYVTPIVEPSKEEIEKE

T18: Cyk3, Q07533
T18 sequence (Q07533 1-83, looked up): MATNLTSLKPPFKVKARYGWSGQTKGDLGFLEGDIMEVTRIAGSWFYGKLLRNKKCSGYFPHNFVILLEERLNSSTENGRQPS

T19: Hof1, Q05080
T19 sequence (Q05080 590-669, looked up): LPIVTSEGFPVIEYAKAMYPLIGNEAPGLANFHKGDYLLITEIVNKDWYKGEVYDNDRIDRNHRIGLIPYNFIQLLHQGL

T20: Pin3, Q06449
T20 sequence (Q06449 53-122, looked up): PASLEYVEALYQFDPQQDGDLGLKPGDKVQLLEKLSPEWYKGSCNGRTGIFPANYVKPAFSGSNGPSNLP

T21: Lsb1, P53281
T21 sequence (P53281 45-122, looked up): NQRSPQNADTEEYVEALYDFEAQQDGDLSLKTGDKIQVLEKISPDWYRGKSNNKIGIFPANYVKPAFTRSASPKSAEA

B1: unnamed (peptide)
chain: KRKRRLPVSEDTNTK
B2: unnamed (peptide)
chain: SLSRRRFSLPSMPNV
B3: unnamed (peptide)
chain: RKLRTVPGVPLIHLT

molecular target: T1, Bud14, P27637; assay: SPOT array; settings: median of control spots 956

SPOT intensity	Binder
22	B1
15	B2
3	B3

molecular target: T2, Lsb4, P32793; assay: SPOT array; settings: median of control spots 397

SPOT intensity	Binder
4	B1
9	B2
5	B3

molecular target: T3, Sla1-2, P32790; assay: SPOT array; settings: median of control spots 712

SPOT intensity	Binder
0	B1
2	B2
1	B3

molecular target: Rvs167, P39743; assay: SPOT array; settings: median of control spots 2707
Sequence (P39743 419-482): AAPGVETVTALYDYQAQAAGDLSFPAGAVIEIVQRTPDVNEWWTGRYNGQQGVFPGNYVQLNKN

SPOT intensity	Binder
1	B1
4	B2
43	B3

molecular target: T4, Boi2, P39969; assay: SPOT array; settings: median of control spots 1161

SPOT intensity	Binder
2	B1
1	B2
0	B3

molecular target: T5, Bbc1, P47068; assay: SPOT array; settings: median of control spots 796

SPOT intensity	Binder
77	B1
98	B2
34	B3

molecular target: GST; assay: SPOT array; settings: median of control spots 978

SPOT intensity	Binder
6	B1
0	B2
1	B3

molecular target: T6, Sla1-3, P32790; assay: SPOT array; settings: median of control spots 5475

SPOT intensity	Binder
21	B1
388	B2
5	B3

molecular target: T7, Bzz1-2, P38822; assay: SPOT array; settings: median of control spots 4538

SPOT intensity	Binder
1	B1
17	B2
0	B3

molecular target: T8, Cdc25, P04821; assay: SPOT array; settings: median of control spots 969

SPOT intensity	Binder
16	B1
35	B2
0	B3

molecular target: T9, Nbp2, Q12163; assay: SPOT array; settings: median of control spots 357

SPOT intensity	Binder
8	B1
34	B2
0	B3

molecular target: T10, Myo5, Q04439; assay: SPOT array; settings: median of control spots 471

SPOT intensity	Binder
0	B1
4	B2
0	B3

molecular target: T11, Fus1, P11710; assay: SPOT array; settings: median of control spots 1200

SPOT intensity	Binder
150	B1
27	B2
2	B3

molecular target: T12, Abp1, P15891; assay: SPOT array; settings: median of control spots 935

SPOT intensity	Binder
78	B1
70	B2
5	B3

molecular target: Myo3, P36006; assay: SPOT array; settings: median of control spots 468

SPOT intensity	Binder
9	B1
27	B2
8	B3

molecular target: T13, Lsb3, P43603; assay: SPOT array; settings: median of control spots 406

SPOT intensity	Binder
8	B1
4	B2
2	B3

molecular target: T14, Boi1, P38041; assay: SPOT array; settings: median of control spots 1162

SPOT intensity	Binder
6	B1
1	B2
0	B3

molecular target: Bem1-2, P29366; assay: SPOT array; settings: median of control spots 4347
Sequence (P29366 139-227): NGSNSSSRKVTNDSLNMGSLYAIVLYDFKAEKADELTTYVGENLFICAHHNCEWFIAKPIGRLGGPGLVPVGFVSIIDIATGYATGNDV

SPOT intensity	Binder
0	B1
53	B2
0	B3

molecular target: T15, Pex13, P80667; assay: SPOT array; settings: median of control spots 1341

SPOT intensity	Binder
0	B1
28	B2
4	B3

molecular target: T16, Bzz1-1, P38822; assay: SPOT array; settings: median of control spots 4446

SPOT intensity	Binder
3	B1
3	B2
1	B3

molecular target: T17, Hse1, P38753; assay: SPOT array; settings: median of control spots 1727

SPOT intensity	Binder
4	B1
97	B2
0	B3

molecular target: Sho1, P40073; assay: SPOT array; settings: median of control spots 1148
Sequence (P40073 287-367): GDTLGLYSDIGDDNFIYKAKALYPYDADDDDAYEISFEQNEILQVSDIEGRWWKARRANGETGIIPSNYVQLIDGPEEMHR

SPOT intensity	Binder
54	B1
84	B2
6	B3

molecular target: T18, Cyk3, Q07533; assay: SPOT array; settings: median of control spots 1451

SPOT intensity	Binder
8	B1
1	B2
0	B3

molecular target: T19, Hof1, Q05080; assay: SPOT array; settings: median of control spots 4086

SPOT intensity	Binder
0	B1
77	B2
2	B3

molecular target: T20, Pin3, Q06449; assay: SPOT array; settings: median of control spots 2171

SPOT intensity	Binder
4	B1
66	B2
3	B3

molecular target: Bem1-1, P29366; assay: SPOT array; settings: median of control spots 4282
Sequence (P29366 55-141): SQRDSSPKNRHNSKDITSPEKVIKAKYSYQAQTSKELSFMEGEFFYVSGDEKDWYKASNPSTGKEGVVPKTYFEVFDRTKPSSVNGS

SPOT intensity	Binder
1	B1
0	B2
0	B3

molecular target: T21, Lsb1, P53281; assay: SPOT array; settings: median of control spots 388

SPOT intensity	Binder
1	B1
1050	B2
0	B3
